The results in this text go back to patent EP3461842A1 (Amgen Research (Munich) GmbH, dated 2019).

Positions count from the first letter of the chain named. In names and notes the source's numbering stands.

Assay [1] addresses T1, 1-27 CD3-Fc (N-terminal amino acids 1-27 of the mature human CD3 epsilon chain fused to the hinge and Fc … (human)).
T1 construct: The synthetic gene also codes a 19 amino acid immunoglobulin leader; also called 27 aa huCD3E; human CD3 epsilon (aa 1-27)- Fc fusion protein
The assay is described as follows: SPR (Biacore 2000), 1-27 CD3-Fc coupled to CM5 chip, Langmuir model. On the technique in general: Surface plasmon resonance follows binding to a sensor surface in real time, without labels.

The target in assay [2] is T1, 1-27 CD3-Fc (N-terminal amino acids …). The assay is described as follows: ELISA, captured 1-27 CD3-Fc, periplasmic scFv. (In general: In an ELISA, binding on a coated surface is turned into a signal by an enzyme label.)
In assay [3] the target is T2, 1-27 CD3-EpCAM, human 27 mer (N-terminal amino acids 1-27 of human CD3 epsilon, Flag tag, cynomolgus EpCAM) (human; cynomolgus monkey).
T2 chain: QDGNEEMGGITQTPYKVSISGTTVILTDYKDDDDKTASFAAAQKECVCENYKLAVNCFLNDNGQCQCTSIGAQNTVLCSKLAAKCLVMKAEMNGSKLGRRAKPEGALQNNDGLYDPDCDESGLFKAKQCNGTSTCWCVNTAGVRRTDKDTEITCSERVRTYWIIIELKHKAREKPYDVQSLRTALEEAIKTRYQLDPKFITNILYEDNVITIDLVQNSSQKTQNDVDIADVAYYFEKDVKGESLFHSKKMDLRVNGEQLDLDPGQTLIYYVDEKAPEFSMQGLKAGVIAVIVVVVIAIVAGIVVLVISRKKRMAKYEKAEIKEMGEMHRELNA
The assay is described as follows: FACS, 293-HEK transfectant. On the technique in general: In flow cytometry, cells or beads pass a laser one at a time.

For assay [4], the target named is T3, 1-27 CD3-EpCAM, squirrel monkey 27 mer (Saimiri sciureus CD3 epsilon 1-27, Flag tag, cynomolgus EpCAM) (Saimiri sciureus; cynomolgus monkey).
T3 construct: On transfected cells
T3 chain: T2 chain with M7I, G9D, I10T, T13N, I25T
In words: FACS, 293-HEK transfectant.

The target of assay [5] is T4, 1-27 CD3-EpCAM, swine 27 mer (Sus scrofa CD3 epsilon 1-27, Flag tag, cynomolgus EpCAM) (Sus scrofa; cynomolgus monkey).
T4 construct: Negative control, on transfected cells
T4 chain: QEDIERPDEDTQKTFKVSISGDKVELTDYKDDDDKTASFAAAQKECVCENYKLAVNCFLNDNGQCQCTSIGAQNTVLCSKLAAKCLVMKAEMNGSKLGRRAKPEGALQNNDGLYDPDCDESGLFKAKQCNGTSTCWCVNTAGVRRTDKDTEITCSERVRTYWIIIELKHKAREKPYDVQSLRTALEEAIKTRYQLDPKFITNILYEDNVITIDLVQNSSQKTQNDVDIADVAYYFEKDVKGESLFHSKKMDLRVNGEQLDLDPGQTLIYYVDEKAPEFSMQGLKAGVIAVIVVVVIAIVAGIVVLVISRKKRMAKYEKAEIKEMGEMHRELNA
The assay is described as follows: FACS on transfected 293-HEK cells.

For assay [6], the target named is T5, human CD3 (epsilon) on human T cells (HPB-ALL cell line, human PBMC) (human, UniProt P07766 23-207).
T5 construct: whole, on cells; also called native CD3
In words: FACS, HPB-ALL.

T5 sequence (P07766 23-207): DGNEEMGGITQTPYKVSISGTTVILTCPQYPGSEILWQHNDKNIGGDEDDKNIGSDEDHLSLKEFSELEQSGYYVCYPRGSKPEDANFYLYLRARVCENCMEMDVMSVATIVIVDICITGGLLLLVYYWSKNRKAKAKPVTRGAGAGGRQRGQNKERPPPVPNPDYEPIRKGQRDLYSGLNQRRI

B1: EGFR-21-63 LH x A2J HLP (bispecific antibody)
chain: DIVLTQSPASLPVSLGQRATISCRASQSVSSSTYSYIHWYQQKPGQPPKLLITYASNLESGVPARFSGSGSGTDFTLDIHPVEEDDSSTYYCQHSWEIPFTFGSGTKLEIKGGGGSGGGGSGGGGSQVQLQQSGPDLVKPGASVKMSCKASGHTFTDCVIIWVKQRAGQGLEWIGQIYPGTGRSYYNEIFKGKATLTADKSSNTVHIQLSSLTSEDSAVYFCALSTLIHGTWFSYWGQGTLVTVSSGGGGSEVQLLESGGGLVQPGGSLKLSCAASGFTFNVYAMNWVRQAPGKGLEWVARIRSKYNNYATYYADSVKKRFTISRDDSKNTAYLQMNNLKTEDTAVYYCVRHGNFGNSYLSWWAYWGQGTLVTVSSGGGGSGGGGSGGGGSELVVTQEPSLTVSPGGTVTLTCRSSTGAVTSGYYPNWVQQKPGQAPRGLIGATDMRPSGTPARFSGSLLGGKAALTLSGVQPEDEAEYYCALWYSNRWVFGGGTKLTVL
notes: plus C-terminal His6 tag; also called EGFR LH x A2J HLP
By Kd is commonly meant the concentration at which binding is half-saturated. In the case of B1, binding in assay [1] was put at a Kd of 249 nM.

B2: EGFR-21-63 LH x E2M HLP (bispecific antibody)
chain: B1 chain with V282G, K319E, G353R, W363F
notes: plus C-terminal His6 tag; also called EGFR LH x E2M HLP
B2 displayed a Kd in assay [1] of 2460 nM.

B3: A2J HLP single-chain antibody (scFv)
scFv: EVQLLESGGGLVQPGGSLKLSCAASGFTFNVYAMNWVRQAPGKGLEWVARIRSKYNNYATYYADSVKKRFTISRDDSKNTAYLQMNNLKTEDTAVYYCVRHGNFGNSYLSWWAYWGQGTLVTVSSGGGGSGGGGSGGGGSELVVTQEPSLTVSPGGTVTLTCRSSTGAVTSGYYPNWVQQKPGQAPRGLIGATDMRPSGTPARFSGSLLGGKAALTLSGVQPEDEAEYYCALWYSNRWVFGGGTKLTVL
notes: Crude periplasmic preparation, Flag and His6 tags
For the molecule B3, the binding result in assay [2] is on record as “binds”.

B4: E2M HLP single-chain antibody (scFv)
scFv: B3 scFv with V31G, K68E, G102R, W112F
notes: as for B3
As to B4, the binding result in assay [3] is “binds”; in assay [4], “binds”; in assay [5], “no binding”; in assay [2], “binds”.

B5: MCSP-G4 HLP x E2M HLP (bispecific antibody)
chain: QVQLVQSGAEVKRPGASMKVSCKASGYTFTNYYIHWVRQAPGQGLEWMGWINPNSGATNYAQKFQGRVTMTRDTSTSTVYMELSSLRSEDTAVYYCAKSWVSWFASWGQGTLVTVSSGGGGSGGGGSGGGGSELVMTQSPDSLAVSLGERATINCKSSQSVLNSSNNRNYLAWYQQKPGQPPKLLIYWASTRESGVPDRFSGSGSGTDFTLTISGLQAEDVAVYYCQQHYSTPFTFGPGTKVDIKSGGGGSEVQLLESGGGLVQPGGSLKLSCAASGFTFNGYAMNWVRQAPGKGLEWVARIRSKYNNYATYYADSVKERFTISRDDSKNTAYLQMNNLKTEDTAVYYCVRHRNFGNSYLSWFAYWGQGTLVTVSSGGGGSGGGGSGGGGSELVVTQEPSLTVSPGGTVTLTCRSSTGAVTSGYYPNWVQQKPGQAPRGLIGATDMRPSGTPARFSGSLLGGKAALTLSGVQPEDEAEYYCALWYSNRWVFGGGTKLTVL
notes: plus C-terminal His6 tag
With B5, in assay [6], the binding result was “binds”.
